The assay has as its target Klebsiella pneumonia PriA protein fused to an N-terminal 6xHis purification tag (Klebsiella pneumonia, UniProt A6TGC5 1-731). Put plainly: AlphaScreen or HTRF. A general note: Alpha assays give light when donor and acceptor beads are brought close together.

We go through one molecule from paper PMC5667550 (SLAS discovery : advancing life sciences R & D, 2017).

Ends that are not written are not given here. * marks the point of attachment. Biotin = O=C1N[C@H]2[C@H](CS[C@H]2CCCCC(=O)*)N1

Klebsiella pneumonia PriA protein fused to an N-terminal 6xHis purification tag, sequence (A6TGC5 whole entry, the tested form may be a part): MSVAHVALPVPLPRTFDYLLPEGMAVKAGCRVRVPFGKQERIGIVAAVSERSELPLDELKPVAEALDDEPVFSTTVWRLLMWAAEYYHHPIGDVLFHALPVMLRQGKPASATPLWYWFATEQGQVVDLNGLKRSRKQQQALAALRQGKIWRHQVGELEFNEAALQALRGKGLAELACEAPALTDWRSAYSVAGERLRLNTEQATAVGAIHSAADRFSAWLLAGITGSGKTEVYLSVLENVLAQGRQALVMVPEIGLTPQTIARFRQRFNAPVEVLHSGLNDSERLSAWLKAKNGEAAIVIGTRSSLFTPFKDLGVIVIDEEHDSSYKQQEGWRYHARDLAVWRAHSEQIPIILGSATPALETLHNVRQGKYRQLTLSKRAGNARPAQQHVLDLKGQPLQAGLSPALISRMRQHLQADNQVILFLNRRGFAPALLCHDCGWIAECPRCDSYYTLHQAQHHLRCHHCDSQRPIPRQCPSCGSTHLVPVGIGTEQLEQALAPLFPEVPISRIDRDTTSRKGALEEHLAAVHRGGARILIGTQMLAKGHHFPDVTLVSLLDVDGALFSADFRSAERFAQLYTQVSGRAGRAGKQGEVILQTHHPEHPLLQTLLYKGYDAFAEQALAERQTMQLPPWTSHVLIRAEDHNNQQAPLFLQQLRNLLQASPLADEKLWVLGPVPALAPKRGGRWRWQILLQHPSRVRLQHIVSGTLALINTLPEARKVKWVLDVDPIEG

Take Biotin-WMDFDDDIPF [N-terminally biotinylated SSBct]: the binding result is “binds”.
